Experimental data: patent publication US20180282410A1 (Hoffmann-La Roche, published 2018)
Like-named read-outs stand apart in the source and are kept apart here.

T1: mouse Robo 4 on MS-1 mouse endothelial cells (mouse, UniProt Q8C310 28-1012)
T1 sequence: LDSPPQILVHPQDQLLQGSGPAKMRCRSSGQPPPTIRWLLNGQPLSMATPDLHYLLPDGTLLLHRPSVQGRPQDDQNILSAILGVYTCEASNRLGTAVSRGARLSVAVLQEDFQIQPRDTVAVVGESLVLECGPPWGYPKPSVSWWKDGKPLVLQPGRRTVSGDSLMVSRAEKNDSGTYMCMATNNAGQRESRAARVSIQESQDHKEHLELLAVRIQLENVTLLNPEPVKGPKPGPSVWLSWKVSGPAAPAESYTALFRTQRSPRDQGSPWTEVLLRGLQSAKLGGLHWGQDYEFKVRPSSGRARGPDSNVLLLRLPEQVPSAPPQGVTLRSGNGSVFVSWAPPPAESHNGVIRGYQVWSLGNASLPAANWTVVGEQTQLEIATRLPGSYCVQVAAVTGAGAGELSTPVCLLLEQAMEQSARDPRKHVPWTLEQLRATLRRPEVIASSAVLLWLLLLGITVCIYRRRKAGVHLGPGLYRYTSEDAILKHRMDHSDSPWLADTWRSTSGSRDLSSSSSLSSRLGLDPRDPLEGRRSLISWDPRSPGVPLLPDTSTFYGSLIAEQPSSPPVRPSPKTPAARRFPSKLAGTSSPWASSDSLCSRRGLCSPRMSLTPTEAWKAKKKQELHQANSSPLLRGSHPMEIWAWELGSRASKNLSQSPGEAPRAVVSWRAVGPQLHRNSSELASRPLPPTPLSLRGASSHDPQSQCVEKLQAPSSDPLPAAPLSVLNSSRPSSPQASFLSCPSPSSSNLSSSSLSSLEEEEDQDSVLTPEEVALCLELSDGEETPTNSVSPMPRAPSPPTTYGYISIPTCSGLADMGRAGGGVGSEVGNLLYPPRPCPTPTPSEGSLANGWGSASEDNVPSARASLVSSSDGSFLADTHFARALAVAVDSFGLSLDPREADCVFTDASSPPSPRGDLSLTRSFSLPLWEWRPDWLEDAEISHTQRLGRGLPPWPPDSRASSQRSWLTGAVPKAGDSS

T2: full-length human Robo 4 (on cells) (human, UniProt Q8WZ75 28-1007)
T2 sequence: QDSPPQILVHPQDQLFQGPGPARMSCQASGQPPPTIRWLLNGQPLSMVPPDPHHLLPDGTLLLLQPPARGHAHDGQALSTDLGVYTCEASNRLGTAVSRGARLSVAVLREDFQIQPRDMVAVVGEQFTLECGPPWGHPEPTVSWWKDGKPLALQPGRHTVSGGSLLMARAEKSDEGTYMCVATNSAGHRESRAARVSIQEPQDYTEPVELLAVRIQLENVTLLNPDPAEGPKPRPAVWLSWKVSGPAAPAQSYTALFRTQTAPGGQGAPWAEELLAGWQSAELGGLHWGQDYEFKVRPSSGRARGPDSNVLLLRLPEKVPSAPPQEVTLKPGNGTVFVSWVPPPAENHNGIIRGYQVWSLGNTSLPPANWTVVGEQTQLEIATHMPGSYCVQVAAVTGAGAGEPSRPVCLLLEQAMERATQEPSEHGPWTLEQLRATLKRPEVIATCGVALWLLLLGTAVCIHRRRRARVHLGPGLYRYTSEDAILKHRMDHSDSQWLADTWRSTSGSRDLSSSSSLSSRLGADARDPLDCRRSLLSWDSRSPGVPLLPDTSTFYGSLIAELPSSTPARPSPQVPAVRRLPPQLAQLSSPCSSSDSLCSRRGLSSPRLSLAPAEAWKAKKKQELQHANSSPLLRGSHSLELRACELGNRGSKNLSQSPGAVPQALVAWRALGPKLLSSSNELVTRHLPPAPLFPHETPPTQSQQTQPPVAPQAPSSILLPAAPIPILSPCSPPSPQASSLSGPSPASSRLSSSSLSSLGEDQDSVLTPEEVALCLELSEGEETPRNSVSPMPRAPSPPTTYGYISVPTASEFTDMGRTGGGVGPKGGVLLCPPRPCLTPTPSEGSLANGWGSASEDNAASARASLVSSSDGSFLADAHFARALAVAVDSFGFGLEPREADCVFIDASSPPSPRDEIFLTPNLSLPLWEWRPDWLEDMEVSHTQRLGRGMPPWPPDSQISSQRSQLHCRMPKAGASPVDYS

B1: Molecule B, 1+1 CrossFab-IgG (VH/VL exchange in CD3 binder, CD3 binder V9, Robo 4 binder 01F05) (bispecific antibody)
chain 1: not shown
chain 2: QLVLTQSPSASASLGASVKLTCTLSSQHSSYGITWLQQHPDKAPKYVMYLKSDGSHTKGADIPDRFSGSSSGVHRYLSISNVQPEDEAIYFCVTYDSTHVFGSGTQLTVLGQPKAAPSVTLFPPSSEELQANKATLVCLISDFYPGAVTVAWKADSSPVKAGVETTTPSKQSNNKYAASSYLSLTPEQWKSHRSYSCQVTHEGSTVEKTVAPTECS
chain 3: EVQLVESGGGLVQPGGSLRLSCAASGYSFTGYTMNWVRQAPGKGLEWVALINPYKGVSTYNQKFKDRFTISVDKSKNTAYLQMNSLRAEDTAVYYCARSGYYGDSDWYFDVWGQGTLVTVSSASVAAPSVFIFPPSDEQLKSGTASVVCLLNNFYPREAKVQWKVDNALQSGNSQESVTEQDSKDSTYSLSSTLTLSKADYEKHKVYACEVTHQGLSSPVTKSFNRGEC
chain 4: DKTHTCPPCPAPEAAGGPSVFLFPPKPKDTLMISRTPEVTCVVVDVSHEDPEVKFNWYVDGVEVHNAKTKPREEQYNSTYRVVSVLTVLHQDWLNGKEYKCKVSNKALGAPIEKTISKAKGQPREPQVCTLPPSRDELTKNQVSLSCAVKGFYPSDIAVEWESNGQPENNYKTTPPVLDSDGSFFLVSKLTVDKSRWQQGNVFSCSVMHEALHNHYTQKSLSLSPGK
B2: Molecule G, 1+1 Fab-CrossFab (VH/VL exchange in CD3 binder, CD3 binder V9, Robo 4 binder 01E06) (bispecific antibody)
chain 1: EVQLVESGGGLSQPGNSLKLSCEASGFTFRNYDMSWVRQAPGKGLEWVAYISSGGGPIYYVDAVKGRFTISRDNAKNLLFLQMNNLRSEDTAVYYCARDLADIGVFDYWGQGTMVTVSSASTKGPSVFPLAPSSKSTSGGTAALGCLVKDYFPEPVTVSWNSGALTSGVHTFPAVLQSSGLYSLSSVVTVPSSSLGTQTYICNVNHKPSNTKVDKKVEPKSCDGGGGSGGGGSDIQMTQSPSSLSASVGDRVTITCRASQDIRNYLNWYQQKPGKAPKLLIYYTSRLESGVPSRFSGSGSGTDYTLTISSLQPEDFATYYCQQGNTLPWTFGQGTKVEIKSSASTKGPSVFPLAPSSKSTSGGTAALGCLVKDYFPEPVTVSWNSGALTSGVHTFPAVLQSSGLYSLSSVVTVPSSSLGTQTYICNVNHKPSNTKVDKKVEPKSC
chain 2: DFKMTQSPDILSPSLGESVTITCQSSQNIYSNLAWYQQKPGEHPKLLIYTASILADGIPSRFTGSGSGTQFSLKISSLQPDDVANYYCQQYVYYRTFGPGTKLEIKRTVAAPSVFIFPPSDEQLKSGTASVVCLLNNFYPREAKVQWKVDNALQSGNSQESVTEQDSKDSTYSLSSTLTLSKADYEKHKVYACEVTHQGLSSPVTKSFNRGEC
chain 3: B1 chain 3
B3: Molecule I, 1+1 Fab-CrossFab (VH/VL exchange in CD3 binder, CD3 binder V9, Robo 4 binder 01F09) (bispecific antibody)
chain 1: QIQLQESGPGLVKPSQSLSLTCSVTGYSISSGSLWTWIRQFPGNNLEWMGYISYAGGIDYNPSLTSRISITRDTSRNQFFLQLESVTTQDTATYYCATPGGYPFHFDYWGQGTMVTVSSASTKGPSVFPLAPSSKSTSGGTAALGCLVKDYFPEPVTVSWNSGALTSGVHTFPAVLQSSGLYSLSSVVTVPSSSLGTQTYICNVNHKPSNTKVDKKVEPKSCDGGGGSGGGGSDIQMTQSPSSLSASVGDRVTITCRASQDIRNYLNWYQQKPGKAPKLLIYYTSRLESGVPSRFSGSGSGTDYTLTISSLQPEDFATYYCQQGNTLPWTFGQGTKVEIKSSASTKGPSVFPLAPSSKSTSGGTAALGCLVKDYFPEPVTVSWNSGALTSGVHTFPAVLQSSGLYSLSSVVTVPSSSLGTQTYICNVNHKPSNTKVDKKVEPKSC
chain 2: QPVLTQSPSASASLGASVKLTCTLNSQFSTYNIGWYQQHRDKPPKYVMFVKGDGGHSKADGIPDRFSGSSSGADRYLTISNIQAEDEAIYFCGADYNNAGQYGCVFGSGTHFTVLGQPKAAPSVTLFPPSSEELQANKATLVCLISDFYPGAVTVAWKADSSPVKAGVETTTPSKQSNNKYAASSYLSLTPEQWKSHRSYSCQVTHEGSTVEKTVAPTECS
chain 3: B1 chain 3
B4: Molecule C, 1+1 CrossFab-IgG (VH/VL exchange in CD3 binder, CD3 binder V9, Robo 4 binder 01E06) (bispecific antibody)
chain 1: not shown
chain 2: B2 chain 2
chain 3: B1 chain 3
chain 4: B1 chain 4
B5: Molecule F, 2+1 CrossFab-IgG (VH/VL exchange in CD3 binder, CD3 binder V9, Robo 4 binders 01F05) (bispecific antibody)
chain 1: not shown
chain 2: QVQLKQSGAELVKPGASVKISCKTSVYTFTYGYMHWVEQKPGQGLEWIGRIDPDSGNSMYNQKFQGRATLTRDKSSSTVYMELRSLTSEDSAVYYCARSMRYSGYRDYALDLWGQGTQVTVSSASTKGPSVFPLAPSSKSTSGGTAALGCLVKDYFPEPVTVSWNSGALTSGVHTFPAVLQSSGLYSLSSVVTVPSSSLGTQTYICNVNHKPSNTKVDKKVEPKSCDKTHTCPPCPAPEAAGGPSVFLFPPKPKDTLMISRTPEVTCVVVDVSHEDPEVKFNWYVDGVEVHNAKTKPREEQYNSTYRVVSVLTVLHQDWLNGKEYKCKVSNKALGAPIEKTISKAKGQPREPQVCTLPPSRDELTKNQVSLSCAVKGFYPSDIAVEWESNGQPENNYKTTPPVLDSDGSFFLVSKLTVDKSRWQQGNVFSCSVMHEALHNHYTQKSLSLSPGK
chain 3: B1 chain 2
chain 4: B1 chain 3

Experiments:
Assay in all cases: cell-based or functional assay
[1] = molecular target: T1, mouse Robo 4 on MS-1 mouse endothelial …
[2] = molecular target: T2, full-length human Robo 4 (on cells)
[3] = molecular target: T2, full-length human Robo 4 (on cells); remark: listed apart in the source
[4] = molecular target: T2, full-length human Robo 4 (on cells); remark: listed apart in the source
[5] = molecular target: T1, mouse Robo 4 on MS-1 mouse endothelial …; remark: listed apart in the source

Binder | EC50 of T-cell mediated killing of MS-1 cells (LDH release, human pan T cells, E:T 5:1, 17 h) [1] | EC50 of T-cell mediated killing of HUVECs (LDH release, human PBMCs, E:T 10:1), 24 h [2] | EC50 of T-cell mediated killing of HUVECs (LDH release, human PBMCs, E:T 10:1), 48 h [2] | EC50 of T-cell mediated killing of HUVECs (LDH release, human pan T cells, E:T 5:1, 22 h) [3] | EC50 of T-cell mediated killing of HUVECs (LDH release, human PBMCs, E:T 10:1), 24 h [4] | EC50 of T-cell mediated killing of HUVECs (LDH release, human PBMCs, E:T 10:1), 48 h [4] | EC50 of T-cell mediated killing of MS-1 cells (LDH release, human PBMCs, E:T 10:1), 24 h [5] | EC50 of T-cell mediated killing of MS-1 cells (LDH release, human PBMCs, E:T 10:1), 48 h [5]
B1 | 0.115 nM | 1.61 nM | 1.55 nM | 0.164 nM | – | – | – | –
B2 | 0.352 nM | – | – | 0.036 nM | – | – | – | –
B3 | 4.56 nM | – | – | 0.198 nM | – | – | – | –
B4 | 0.472 nM | – | – | 0.046 nM | – | – | – | –
B5 | – | 0.065 nM | 0.322 nM | – | 0.104 nM | 0.154 nM | ~0.164 nM | 0.196 nM
